{"source": "patent US20190375839A1", "about": "(JIANGSU HENGRUI MEDICINE, published 2019)"}
{"target": "T1, human TIM-3 full length, overexpressed on CHO-S cells (human, UniProt Q8TDQ0 22-301)", "T1 construct": "cells fixed with 4% PFA on plates; also called HAVCR2; Tim-3-overexpressing CHO-S cells", "experiment": "cell-based ELISA on fixed CHO-S cells overexpressing human TIM-3;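 note: antibody binding at serial dilutions to PFA-fixed cells for 1 h at 37 °C, read as TMB colour signal after acid stop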", "units": {"EC50": "nM"}, "procedure": "The binding activity of anti-TIM-3 antibody to CHO-S cells overexpressing human TIM-3 is detected via a binding assay. […] TIM-3-overexpressing cells were immobilized on a 96-well plate. After the addition of the antibody, signal strength was used to determine the binding activity of the antibody to Tim-3-overexpressing CHO-S cells.\nThe cells were inoculated on a 96-well plate with 4E5/ml density, 100 μg/well, and cultured overnight. Supernatant was discarded and the plate was washed three times with PBS. 100 μl/well of 4% PFA was added into each well, and the plate was fixed at room temperature for 30 minutes. The plate was washed three times with PBS. The liquid was discarded, and 200 μl of blocking solution (5% skim milk (Guangming skim milk powder) diluted with PBS) was added to each well. The plate was incubated at 37° C. for 2.5 h. Then the blocking solution was discarded, and the plate was washed 5 times with PBST buffer (pH 7.4 PBS containing 0.05% Tween-20). 50 μl/well of various concentrations of antibodies to be tested (antibody via hybridoma purification or humanized antibody), diluted with sample buffer, were added into each well, and incubated at 37° C. for 1 h. […] The plate was washed 6 times with PBST, and 100 μl/well TMB chromogenic substrates (KPL, Cat, No., 52-00-03) was added to each well. The plate was incubated at room temperature for 5-15 min. Reaction was stopped by the addition of 50 μl of 1 M H₂SO₄ to each well."}
{"binder": "h1701-005 (antibody, human IgG4 S228P, kappa, V domains shown, Humanized IgG4 (S228P)/kappa) VH: QVQLVQSGAEVKKPGASVKVSCKASGYTFTDYYMNWVRQAPGQGLEWMGDIIPNNGGSKYNQKFKDRVTMTTDTSTSTAYMELRSLRSDDTAVYYCARWGYGSSYRWFDYWGQGTLVTVSS VL: DIQMTQSPSSLSASVGDRVTITCLASQPIGIWLAWYQQKPGKAPKLLIYAATSLADGVPSRFSGSGSGTDFTFTISSLQPEDIATYYCQQLYSSPWTFGGGTKVEIKR", "EC50": 0.602}
{"binder": "h1701-006 (antibody, human IgG4 S228P, kappa, V domains shown, Humanized IgG4 (S228P)/kappa) VH: QVQLVQSGAEVKKPGASVKVSCKASGYTFTDYYMNWVRQAPGQGLEWMGDIIPNNGGSKYNQKFKDRVTMTTDTSTSTAYMELRSLRSDDTAVYYCARWGYGSSYRWFDYWGQGTLVTVSS VL: DIQMTQSPSSLSASVGDRVTITCLASQPIGIWLAWYQQKPGKSPKLLIYAATSLADGVPSRFSGSGSGTDFTFTISSLQPEDIATYYCQQLYSSPWTFGGGTKVEIKR", "EC50": 0.735}
{"binder": "h1701-008 (antibody, human IgG4 S228P, kappa, V domains shown, Humanized IgG4 (S228P)/kappa) VH: QVQLVQSGAEVKKPGASVKVSCKASGYTFTDYYMNWVRQAPGQGLEWIGDIIPNNGGSKYNQKFKDRVTMTTDTSTSTAYMELRSLRSDDTAVYYCARWGYGSSYRWFDYWGQGTLVTVSS VL: DIQMTQSPSSLSASVGDRVTITCLASQPIGIWLAWYQQKPGKSPKLLIYAATSLADGVPSRFSGSGSGTDFTFTISSLQPEDIATYYCQQLYSSPWTFGGGTKVEIKR", "EC50": 2.42}
{"binder": "h1701-011 (antibody, human IgG4 S228P, kappa, V domains shown, Humanized IgG4 (S228P)/kappa) VH: QVQLVQSGAEVKKPGASVKVSCKASGYTFTDYYMNWVRQAPGQGLEWIGDIIPNNGGSKYNQKFKDRVTMTTDTSTSTAYMELRSLRSDDTAVYYCATWGYGSSYRWFDYWGQGTLVTVSS VL: DIQMTQSPSSLSASVGDRVTITCLASQPIGIWLAWYQQKPGKAPKLLIYAATSLADGVPSRFSGSGSGTDFTFTISSLQPEDIATYYCQQLYSSPWTFGGGTKVEIKR", "EC50": 0.188}
{"binder": "h1701-012 (antibody, human IgG4 S228P, kappa, V domains shown, Humanized IgG4 (S228P)/kappa) VH: QVQLVQSGAEVKKPGASVKVSCKASGYTFTDYYMNWVRQAPGQGLEWIGDIIPNNGGSKYNQKFKDRVTMTTDTSTSTAYMELRSLRSDDTAVYYCATWGYGSSYRWFDYWGQGTLVTVSS VL: DIQMTQSPSSLSASVGDRVTITCLASQPIGIWLAWYQQKPGKSPKLLIYAATSLADGVPSRFSGSGSGTDFTFTISSLQPEDIATYYCQQLYSSPWTFGGGTKVEIKR", "EC50": 0.221}
{"binder": "h1701-013 (antibody, human IgG4 S228P, kappa, V domains shown, Humanized IgG4 (S228P)/kappa) VH: QVQLVQSGAEVKKPGASVKVSCKASGYTFTDYYMNWVKQAPGQGLEWIGDIIPNNGGSKYNQKFKDRVTMTTDTSTSTAYMELRSLRSEDTAVYYCATWGYGSSYRWFDYWGQGTLVTVSS VL: DIQMTQSPSSLSASVGDRVTITCLASQPIGIWLAWYQQKPGKAPKLLIYAATSLADGVPSRFSGSGSGTDFTFTISSLQPEDIATYYCQQLYSSPWTFGGGTKVEIKR", "EC50": 0.199}
{"binder": "h1701-014 (antibody, human IgG4 S228P, kappa, V domains shown, Humanized IgG4 (S228P)/kappa) VH: QVQLVQSGAEVKKPGASVKVSCKASGYTFTDYYMNWVKQAPGQGLEWIGDIIPNNGGSKYNQKFKDRVTMTTDTSTSTAYMELRSLRSEDTAVYYCATWGYGSSYRWFDYWGQGTLVTVSS VL: DIQMTQSPSSLSASVGDRVTITCLASQPIGIWLAWYQQKPGKSPKLLIYAATSLADGVPSRFSGSGSGTDFTFTISSLQPEDIATYYCQQLYSSPWTFGGGTKVEIKR", "EC50": 0.124}
{"binder": "h1701-015 (antibody, human IgG4 S228P, kappa, V domains shown, Humanized IgG4 (S228P)/kappa) VH: QVQLVQSGAEVKKPGASVKVSCKASGYTFTDYYMNWVRQAPGQGLEWIADIIPNNGGSKYNQKFKDRATLTTDTSTSTAYMELRSLRSDDTAVYYCATWGYGSSYRWFDYWGQGTLVTVSS VL: DIQMTQSPSSLSASVGDRVTITCLASQPIGIWLAWYQQKPGKAPKLLIYAATSLADGVPSRFSGSGSGTDFTFTISSLQPEDIATYYCQQLYSSPWTFGGGTKVEIKR", "EC50": 0.265}
{"binder": "h1701-017 (antibody, human IgG4 S228P, kappa, V domains shown, Humanized IgG4 (S228P)/kappa) VH: QVQLVQSGAEVKKPGASVKVSCKASGYTFTDYYMNWVKQAPGQGLEWIADIIPNNGGSKYNQKFKDRATLTTDTSTSTAYMELRSLRSEDTAVYYCATWGYGSSYRWFDYWGQGTLVTVSS VL: DIQMTQSPSSLSASVGDRVTITCLASQPIGIWLAWYQQKPGKAPKLLIYAATSLADGVPSRFSGSGSGTDFTFTISSLQPEDIATYYCQQLYSSPWTFGGGTKVEIKR", "EC50": 0.105}
{"binder": "h1701-018 (antibody, human IgG4 S228P, kappa, V domains shown, Humanized IgG4 (S228P)/kappa) VH: QVQLVQSGAEVKKPGASVKVSCKASGYTFTDYYMNWVKQAPGQGLEWIADIIPNNGGSKYNQKFKDRATLTTDTSTSTAYMELRSLRSEDTAVYYCATWGYGSSYRWFDYWGQGTLVTVSS VL: DIQMTQSPSSLSASVGDRVTITCLASQPIGIWLAWYQQKPGKSPKLLIYAATSLADGVPSRFSGSGSGTDFTFTISSLQPEDIATYYCQQLYSSPWTFGGGTKVEIKR", "EC50": 0.087}
{"binder": "h1799-012 (antibody, human IgG4 S228P, kappa, Humanized IgG4 (S228P)/kappa) heavy: not shown light: DIQMTQSPSSLSASVGDRVTITCRASDNIYSYLAWYQQKPGKAPQLLVYNAKTLAEGVPSRFSGSGSGTDFTLTISSLQPEDFATYYCQQHYGSPLTFGQGTKLEIKRTVAAPSVFIFPPSDEQLKSGTASVVCLLNNFYPREAKVQWKVDNALQSGNSQESVTEQDSKDSTYSLSSTLTLSKADYEKHKVYACEVTHQGLSSPVTKSFNRGEC", "EC50": 0.158}
{"binder": "h1799-007 (antibody, human IgG4 S228P, kappa, Humanized IgG4 (S228P)/kappa) heavy: not shown light: DIQMTQSPSSLSASVGDRVTITCRASDNIYSYLAWYQQKPGKAPQLLVYNAKTLAEGVPSRFSGSGSGTDFTLTISSLQPEDFATYYCQQHYGSPLTFGQGTKLEIKRTVAAPSVFIFPPSDEQLKSGTASVVCLLNNFYPREAKVQWKVDNALQSGNSQESVTEQDSKDSTYSLSSTLTLSKADYEKHKVYACEVTHQGLSSPVTKSFNRGEC", "EC50": 0.109}
{"binder": "h1799-008 (antibody, human IgG4 S228P, kappa, Humanized IgG4 (S228P)/kappa) heavy: not shown light: DIQMTQSPSSLSASVGDRVTITCRASDNIYSYLAWYQQKPGKSPQLLVYNAKTLAEGVPSRFSGSGSGTDFTLTISSLQPEDFATYYCQQHYGSPLTFGQGTKLEIKRTVAAPSVFIFPPSDEQLKSGTASVVCLLNNFYPREAKVQWKVDNALQSGNSQESVTEQDSKDSTYSLSSTLTLSKADYEKHKVYACEVTHQGLSSPVTKSFNRGEC", "EC50": 0.067}
{"binder": "h1799-009 (antibody, human IgG4 S228P, kappa, Humanized IgG4 (S228P)/kappa) heavy: not shown light: DIQMTQSPSSLSASVGDRVTITCRASDNIYSYLAWYQQKPGKSPQLLVYNAKTLAEGVPSRFSGSGSGTDFTLTISSLQPEDFASYYCQQHYGSPLTFGQGTKLEIKRTVAAPSVFIFPPSDEQLKSGTASVVCLLNNFYPREAKVQWKVDNALQSGNSQESVTEQDSKDSTYSLSSTLTLSKADYEKHKVYACEVTHQGLSSPVTKSFNRGEC", "EC50": 0.076}
{"binder": "h1799-011 (antibody, human IgG4 S228P, kappa, Humanized IgG4 (S228P)/kappa) heavy: not shown light: DIQMTQSPSSLSASVGDRVTITCRASDNIYSYLAWYQQKPGKAPKLLVYNAKTLAEGVPSRFSGSGSGTDFTLTISSLQPEDFATYYCQQHYGSPLTFGQGTKLEIKRTVAAPSVFIFPPSDEQLKSGTASVVCLLNNFYPREAKVQWKVDNALQSGNSQESVTEQDSKDSTYSLSSTLTLSKADYEKHKVYACEVTHQGLSSPVTKSFNRGEC", "EC50": 0.114}
{"binder": "h1799-013 (antibody, human IgG4 S228P, kappa, Humanized IgG4 (S228P)/kappa) heavy: not shown light: DIQMTQSPSSLSASVGDRVTITCRASDNIYSYLAWYQQKPGKSPQLLVYNAKTLAEGVPSRFSGSGSGTDFTLTISSLQPEDFATYYCQQHYGSPLTFGQGTKLEIKRTVAAPSVFIFPPSDEQLKSGTASVVCLLNNFYPREAKVQWKVDNALQSGNSQESVTEQDSKDSTYSLSSTLTLSKADYEKHKVYACEVTHQGLSSPVTKSFNRGEC", "EC50": 0.139}
{"binder": "h1799-014 (antibody, human IgG4 S228P, kappa, Humanized IgG4 (S228P)/kappa) heavy: not shown light: DIQMTQSPSSLSASVGDRVTITCRASDNIYSYLAWYQQKPGKSPQLLVYNAKTLAEGVPSRFSGSGSGTDFTLTISSLQPEDFASYYCQQHYGSPLTFGQGTKLEIKRTVAAPSVFIFPPSDEQLKSGTASVVCLLNNFYPREAKVQWKVDNALQSGNSQESVTEQDSKDSTYSLSSTLTLSKADYEKHKVYACEVTHQGLSSPVTKSFNRGEC", "EC50": 0.116}
{"binder": "h1799-015 (antibody, human IgG4 S228P, kappa, V domains shown, Humanized IgG4 (S228P)/kappa) VH: EVKLVESGGGLVQPGGSLRLSCAASGFTFSDYYMAWVRQAPGKGLEWVANINYDGSSTYYLDSLKSRFTISRDNAKNSLYLQMNSLKAEDTAVYYCARDVGYYGGNYGFAYWGQGTLVTVSS VL: DIQMTQSPSSLSASVGDRVTITCRASDNIYSYLAWYQQKPGKAPKLLIYNAKTLAEGVPSRFSGSGSGTDFTLTISSLQPEDFATYYCQQHYGSPLTFGQGTKLEIKR", "EC50": 0.188}
{"binder": "h1799-016 (antibody, human IgG4 S228P, kappa, V domains shown, Humanized IgG4 (S228P)/kappa) VH: EVKLVESGGGLVQPGGSLRLSCAASGFTFSDYYMAWVRQAPGKGLEWVANINYDGSSTYYLDSLKSRFTISRDNAKNSLYLQMNSLKAEDTAVYYCARDVGYYGGNYGFAYWGQGTLVTVSS VL: DIQMTQSPSSLSASVGDRVTITCRASDNIYSYLAWYQQKPGKAPKLLVYNAKTLAEGVPSRFSGSGSGTDFTLTISSLQPEDFATYYCQQHYGSPLTFGQGTKLEIKR", "EC50": 0.117}
{"binder": "h1799-017 (antibody, human IgG4 S228P, kappa, V domains shown, Humanized IgG4 (S228P)/kappa) VH: EVKLVESGGGLVQPGGSLRLSCAASGFTFSDYYMAWVRQAPGKGLEWVANINYDGSSTYYLDSLKSRFTISRDNAKNSLYLQMNSLKAEDTAVYYCARDVGYYGGNYGFAYWGQGTLVTVSS VL: DIQMTQSPSSLSASVGDRVTITCRASDNIYSYLAWYQQKPGKAPQLLVYNAKTLAEGVPSRFSGSGSGTDFTLTISSLQPEDFATYYCQQHYGSPLTFGQGTKLEIKR", "EC50": 0.194}
{"binder": "h1799-018 (antibody, human IgG4 S228P, kappa, V domains shown, Humanized IgG4 (S228P)/kappa) VH: EVKLVESGGGLVQPGGSLRLSCAASGFTFSDYYMAWVRQAPGKGLEWVANINYDGSSTYYLDSLKSRFTISRDNAKNSLYLQMNSLKAEDTAVYYCARDVGYYGGNYGFAYWGQGTLVTVSS VL: DIQMTQSPSSLSASVGDRVTITCRASDNIYSYLAWYQQKPGKSPQLLVYNAKTLAEGVPSRFSGSGSGTDFTLTISSLQPEDFATYYCQQHYGSPLTFGQGTKLEIKR", "EC50": 0.215}
{"binder": "h1799-019 (antibody, human IgG4 S228P, kappa, V domains shown, Humanized IgG4 (S228P)/kappa) VH: EVKLVESGGGLVQPGGSLRLSCAASGFTFSDYYMAWVRQAPGKGLEWVANINYDGSSTYYLDSLKSRFTISRDNAKNSLYLQMNSLKAEDTAVYYCARDVGYYGGNYGFAYWGQGTLVTVSS VL: DIQMTQSPSSLSASVGDRVTITCRASDNIYSYLAWYQQKPGKSPQLLVYNAKTLAEGVPSRFSGSGSGTDFTLTISSLQPEDFASYYCQQHYGSPLTFGQGTKLEIKR", "EC50": 0.119}
